Measured values as given in article PMC7041794, “Investigating the ferric ion binding site of magnetite biomineralisation protein Mms6” (PLoS ONE, 2020).
Positions count from the first letter of the chain named.

B1: SUMO-Mms6 E53A (natural protein, Magnetospirillum magneticum AMB-1)
chain: GGTIWTGKGLGLGLGLGLGAWGPIILGVVGAGAVYAYMKSRDIESAQSDEEVALRDALA
notes: Mms6, Magnetospirillum magneticum AMB-1, mature form; numbers count on: the mature protein; Same tags and construct as m1; source: E. coli BL21 (DE3) Star, purified (nickel column, dialysis); not shown: His6, N-terminal, kept; SUMO (yeast), N-terminal, kept
B2: SUMO-Mms6 D42A (natural protein, Magnetospirillum magneticum AMB-1)
chain: B1 chain with D42A, A53E
notes: Mms6, Magnetospirillum magneticum AMB-1, mature form; numbers count on: the mature protein; Same tags and construct as m1 (pET28SUMOmms6, site directed mutagenesis); source: E. coli BL21 (DE3) Star, purified (nickel column, dialysis); not shown: His6, N-terminal, kept; SUMO (yeast), N-terminal, kept
B3: SUMO-Mms6 E51A (natural protein, Magnetospirillum magneticum AMB-1)
chain: B1 chain with E51A, A53E
notes: as for B1
B4: SUMO-Mms6 E50A (natural protein, Magnetospirillum magneticum AMB-1)
chain: B1 chain with E50A, A53E
notes: as for B1
B5: SUMO-Mms6 R55A (natural protein, Magnetospirillum magneticum AMB-1)
chain: B1 chain with A53E, R55A
notes: as for B1
B6: SUMO-Mms6 D49A (natural protein, Magnetospirillum magneticum AMB-1)
chain: B1 chain with D49A, A53E
notes: as for B1
B7: SUMO-Mms6 EE50AA (natural protein, Magnetospirillum magneticum AMB-1)
chain: B1 chain with E50A, E51A, A53E
notes: Mms6, Magnetospirillum magneticum AMB-1, mature form; numbers count on: the mature protein; Same tags and construct as m1; also called double mutant; source: E. coli BL21 (DE3) Star, purified (nickel column, dialysis); not shown: His6, N-terminal, kept; SUMO (yeast), N-terminal, kept
B8: SUMO-Mms6 E44A (natural protein, Magnetospirillum magneticum AMB-1)
chain: B1 chain with E44A, A53E
notes: as for B1
B9: SUMO-Mms6 (natural protein, Magnetospirillum magneticum AMB-1)
chain: B1 chain with A53E
notes: Mms6, Magnetospirillum magneticum AMB-1, mature form (59 residues), the C-terminal stretch of the printed SUMO-Mms6 construct; numbers count on: the mature protein (truncated form isolated by Arakaki et al.); No cleavage of the tags is described; also called wildtype SUMO-Mms6; Mms6 (His6-SUMO fusion); source: E. coli BL21 (DE3) Star, purified (nickel column, dialysis against EDTA and …)

Target: the molecule itself
Assay: SDS-PAGE; purified proteins on Bio-Rad AnyKd gel, InstantBlue staining; apparent monomer and dimer bands
B1: binds.
B2: binds.
B3: binds.
B4: binds.
B5: binds.
B6: binds.
B7: binds.
B8: binds.

Target: the molecule itself
Assay: SEC; gel filtration of purified SUMO-Mms6 on Superdex S200 10/300 in 20 mM Tris pH 7.4; molecular weights extrapolated from Gel Filtration Marker Kit standards
B9 was tested, and the “stoichiometry N” value was 2.
